The record followed here is PMC5678105, “Engineering DNA Backbone Interactions Results in TALE Scaffolds with Enhanced 5-Methylcytosine Selectivity”.

The target in series [1] is T1, GFP-TALE_9a_26 WT (Xanthomonas axonopodis scaffold …). In words: EMSA; 5mC vs C DNA; EMSA: 20 mM Tris pH 8, 50 mM NaCl, 5 mM MgCl2, 5% glycerol; 0.1 pmol TALE + 0.5 pmol duplex in 10 uL; RT 30 min then ice 30 min; gel 0.5x TAE 4 C; GFP readout. Conditions: protein: recombinant; tags: N-terminal GFP; C-terminal His6; blunt. Background: Mobility shift assays separate free from complexed probe on a gel.

The target in series [2] is T1, GFP-TALE_9a_26 WT. Briefly: EMSA; EMSA: 20 mM Tris pH 8, 50 mM NaCl, 5 mM MgCl2, 5% glycerol; 0.1 pmol TALE + 0.5 pmol duplex in 10 uL; RT 30 min then ice 30 min; gel 0.5x TAE 4 C; GFP readout. Conditions: protein: recombinant; tags: N-terminal GFP; C-terminal His6; blunt.

B1: 9a_26 5mC (dsDNA)
DNA 1: GGCCAGCCAGTCAGCCGAAGGCTCCATGCTGCTCCCCGCCGCCGGC
DNA 2: GCCGGCGGCGGGGAGCAGCATGGAGCCTTCGGCTGACTGGCTGGCC
modifications: 5mC at strand 1 nt 16 (site position 5, T = 0)
On to B1, for which, in series [1], the binding signal was 2 fold C over 5mC selectivity.

B2: 9a_26 C (dsDNA)
DNA 1: GGCCAGCCAGTCAGCCGAAGGCTCCATGCTGCTCCCCGCCGCCGGC
DNA 2: GCCGGCGGCGGGGAGCAGCATGGAGCCTTCGGCTGACTGGCTGGCC
Consider B2, for which the binding result in series [2] is recorded as “binds”.
